Measured values reported in US20120316071A1 (published 2012).

Columns and labels:
[1] = target: T1, rHuman CD44/Fc Chimera, CF (R&D Systems Cat#3660-CD) (human, UniProt P16070 21-220); assay: MSD multispot ECL, antigen spotted on plate, Fab in solution; blank spot of this row 237
T1 construct: Bought recombinant protein; Fc part of the bought chimera not given

[2] = target: T2, rHuman Notch-1/Fc Chimera, CF (R&D Systems Cat#3647-TK) (human, UniProt P46531 19-526); assay: as above
T2 construct: Bought recombinant protein; Fc part of the bought chimera not given

[3] = target: T3, rHuman P-Cadherin/Fc Chimera, CF (R&D Systems Cat#861-PC) (human, UniProt P22223 108-654); assay: as above
T3 construct: Bought recombinant protein; Fc part of the bought chimera not given

[4] = target: T4, rHuman EGF R/Fc Chimera, CF (R&D Systems Cat#344-ER) (human, UniProt P00533 25-645); assay: as above
T4 construct: Bought recombinant protein; Fc part of the bought chimera not given

[5] = target: T5, Recombinant Human DLL4 (R&D Systems Cat#1506-D4/CF) (human, UniProt Q9NR61 27-524); assay: as above
T5 construct: Bought recombinant protein; also called delta-like protein 4; rHuman DLL4

[6] = target: T6, rHuman ErbB2/Fc Chimera, CF (R&D Systems Cat#1129-ER) (human, UniProt P04626 23-652); assay: as above
T6 construct: Bought recombinant protein; Fc part of the bought chimera not given

[7] = target: T7, rHuman IGF-1 sR (insulin-like growth factor-1 soluble receptor), CF (R&D Systems Cat#391-GR) (human, UniProt P08069 31-932); assay: as above
T7 construct: Bought recombinant soluble receptor; The column head prints only 'IGF-1'

[8] = target: T8, rHuman Erythropoietin R/Fc Chimera, CF (R&D Systems Cat#963-ER) (human, UniProt P19235 25-250); assay: as above
T8 construct: Bought recombinant protein; also called EPO R; Epo R/Fc; Fc part of the bought chimera not given
T8 sequence (looked up): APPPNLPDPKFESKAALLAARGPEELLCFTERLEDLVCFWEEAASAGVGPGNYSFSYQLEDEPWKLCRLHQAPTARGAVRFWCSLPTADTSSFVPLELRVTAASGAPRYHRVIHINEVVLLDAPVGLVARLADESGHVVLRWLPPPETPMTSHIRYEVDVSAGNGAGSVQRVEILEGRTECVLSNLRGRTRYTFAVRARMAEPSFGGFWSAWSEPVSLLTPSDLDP

[9] = target: T9, rHuman HGF R/c-MET/Fc Chimera, CF (R&D Systems Cat#358-MT/CF) (human, UniProt P08581 25-932); assay: as above
T9 construct: Bought recombinant protein; also called HGF R/Fc; Fc part of the bought chimera not given
T9 sequence (P08581 25-932, change not shown): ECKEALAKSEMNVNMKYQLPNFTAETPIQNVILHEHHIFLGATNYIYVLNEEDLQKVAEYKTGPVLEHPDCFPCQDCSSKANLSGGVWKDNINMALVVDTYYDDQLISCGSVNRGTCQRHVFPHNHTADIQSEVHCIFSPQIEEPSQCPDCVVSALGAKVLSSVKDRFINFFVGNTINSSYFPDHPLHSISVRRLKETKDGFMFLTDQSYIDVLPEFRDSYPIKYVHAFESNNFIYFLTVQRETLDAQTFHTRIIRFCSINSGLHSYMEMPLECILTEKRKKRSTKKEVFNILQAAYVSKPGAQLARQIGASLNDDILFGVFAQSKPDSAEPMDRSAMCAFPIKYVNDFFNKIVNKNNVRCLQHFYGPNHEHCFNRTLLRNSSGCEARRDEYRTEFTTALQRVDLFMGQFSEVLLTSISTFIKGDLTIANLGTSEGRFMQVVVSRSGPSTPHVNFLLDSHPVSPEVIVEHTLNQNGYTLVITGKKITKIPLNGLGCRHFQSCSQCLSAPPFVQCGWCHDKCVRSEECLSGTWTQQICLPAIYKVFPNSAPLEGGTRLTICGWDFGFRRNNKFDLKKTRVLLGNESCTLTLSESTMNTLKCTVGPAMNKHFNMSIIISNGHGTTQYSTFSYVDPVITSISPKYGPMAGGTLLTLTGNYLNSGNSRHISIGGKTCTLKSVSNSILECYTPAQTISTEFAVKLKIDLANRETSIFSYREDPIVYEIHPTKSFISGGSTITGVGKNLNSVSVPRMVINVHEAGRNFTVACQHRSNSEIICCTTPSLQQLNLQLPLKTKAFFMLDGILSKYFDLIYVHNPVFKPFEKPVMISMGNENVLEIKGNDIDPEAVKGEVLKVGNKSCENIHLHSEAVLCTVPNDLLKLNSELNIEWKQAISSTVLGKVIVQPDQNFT

[10] = target: T1, rHuman CD44/Fc Chimera, CF (R&D Systems …); assay: MSD multispot ECL, antigen spotted on plate, Fab in solution; blank spot of this row 258
[11] = target: T2, rHuman Notch-1/Fc Chimera, CF (R&D …); assay: as above
[12] = target: T3, rHuman P-Cadherin/Fc Chimera, CF (R&D …); assay: as above
[13] = target: T4, rHuman EGF R/Fc Chimera, CF (R&D …); assay: as above
[14] = target: T5, Recombinant Human DLL4 (R&D Systems …); assay: as above
[15] = target: T6, rHuman ErbB2/Fc Chimera, CF (R&D …); assay: as above
[16] = target: T7, rHuman IGF-1 sR (insulin-like growth …); assay: as above
[17] = target: T8, rHuman Erythropoietin R/Fc Chimera, CF …; assay: as above
[18] = target: T9, rHuman HGF R/c-MET/Fc Chimera, CF (R&D …); assay: as above
[19] = target: T1, rHuman CD44/Fc Chimera, CF (R&D Systems …); assay: MSD multispot ECL, antigen spotted on plate, Fab in solution; blank spot of this row 298
[20] = target: T2, rHuman Notch-1/Fc Chimera, CF (R&D …); assay: as above
[21] = target: T3, rHuman P-Cadherin/Fc Chimera, CF (R&D …); assay: as above
[22] = target: T4, rHuman EGF R/Fc Chimera, CF (R&D …); assay: as above
[23] = target: T5, Recombinant Human DLL4 (R&D Systems …); assay: as above
[24] = target: T6, rHuman ErbB2/Fc Chimera, CF (R&D …); assay: as above
[25] = target: T7, rHuman IGF-1 sR (insulin-like growth …); assay: as above
[26] = target: T8, rHuman Erythropoietin R/Fc Chimera, CF …; assay: as above
[27] = target: T9, rHuman HGF R/c-MET/Fc Chimera, CF (R&D …); assay: as above
[28] = target: T1, rHuman CD44/Fc Chimera, CF (R&D Systems …); assay: MSD multispot ECL, antigen spotted on plate, Fab in solution; blank spot of this row 440
[29] = target: T2, rHuman Notch-1/Fc Chimera, CF (R&D …); assay: as above
[30] = target: T3, rHuman P-Cadherin/Fc Chimera, CF (R&D …); assay: as above
[31] = target: T4, rHuman EGF R/Fc Chimera, CF (R&D …); assay: as above
[32] = target: T5, Recombinant Human DLL4 (R&D Systems …); assay: as above
[33] = target: T6, rHuman ErbB2/Fc Chimera, CF (R&D …); assay: as above
[34] = target: T7, rHuman IGF-1 sR (insulin-like growth …); assay: as above
[35] = target: T8, rHuman Erythropoietin R/Fc Chimera, CF …; assay: as above
[36] = target: T9, rHuman HGF R/c-MET/Fc Chimera, CF (R&D …); assay: as above

B1: Fab VH1-46_IGHD6-6*01_IGHJ1*01 S102A/S103P/S104F/H111F (H:APFF) & L6_IGKJ1*01 S76E (Fab, V domains shown)
VH: QVQLVQSGAEVKKPGASVKVSCKASGYTFTSYYMHWVRQAPGQGLEWMGIINPSGGSTSYAQKFQGRVTMTRDTSTSTVYMELSSLRSEDTAVYYCAREEYAPFSAEYFQFWGQGTLVTVSS
VL: EIVLTQSPATLSLSPGERATLSCRASQSVSSYLAWYQQKPGQAPRLLIYDASNRATGIPARFSGSGSGTDFTLTIESLEPEDFAVYYCQQRSNWPPWTFGQGTKVEIKR
notes: Fab expressed in E. coli from plasmid A (heavy chain CH1, His6 and Flag tags) and plasmid C (kappa CL)
- ECL signal [1]: 439
- ECL signal [2]: 313
- ECL signal [3]: 338
- ECL signal [4]: 266
- ECL signal [5]: 51600
- ECL signal [6]: 277
- ECL signal [7]: 336
- ECL signal [8]: 440
- ECL signal [9]: 228

B2: Fab VH1-46_IGHD6-6*01_IGHJ1*01 S102A/S103P/S104F/H111F (H:APFF) & L6_IGKJ1*01 S76Q (Fab, V domains shown)
VH: QVQLVQSGAEVKKPGASVKVSCKASGYTFTSYYMHWVRQAPGQGLEWMGIINPSGGSTSYAQKFQGRVTMTRDTSTSTVYMELSSLRSEDTAVYYCAREEYAPFSAEYFQFWGQGTLVTVSS
VL: EIVLTQSPATLSLSPGERATLSCRASQSVSSYLAWYQQKPGQAPRLLIYDASNRATGIPARFSGSGSGTDFTLTIQSLEPEDFAVYYCQQRSNWPPWTFGQGTKVEIKR
notes: as for B1
- ECL signal [10]: 287
- ECL signal [11]: 255
- ECL signal [12]: 364
- ECL signal [13]: 324
- ECL signal [14]: 48300
- ECL signal [15]: 264
- ECL signal [16]: 188
- ECL signal [17]: 430
- ECL signal [18]: 386

B3: Fab VH1-46_IGHD6-6*01_IGHJ1*01 S102A/S103P/S104F/H111F (H:APFF) & L6_IGKJ1*01 S76P (Fab, V domains shown)
VH: QVQLVQSGAEVKKPGASVKVSCKASGYTFTSYYMHWVRQAPGQGLEWMGIINPSGGSTSYAQKFQGRVTMTRDTSTSTVYMELSSLRSEDTAVYYCAREEYAPFSAEYFQFWGQGTLVTVSS
VL: EIVLTQSPATLSLSPGERATLSCRASQSVSSYLAWYQQKPGQAPRLLIYDASNRATGIPARFSGSGSGTDFTLTIPSLEPEDFAVYYCQQRSNWPPWTFGQGTKVEIKR
notes: as for B1
- ECL signal [19]: 313
- ECL signal [20]: 402
- ECL signal [21]: 271
- ECL signal [22]: 331
- ECL signal [23]: 29800
- ECL signal [24]: 260
- ECL signal [25]: 347
- ECL signal [26]: 371
- ECL signal [27]: 394

B4: Fab VH1-46_IGHD6-6*01_IGHJ1*01 S102A/S103P/S104F/H111F (H:APFF) & L6_IGKJ1*01 S76N (Fab, V domains shown)
VH: QVQLVQSGAEVKKPGASVKVSCKASGYTFTSYYMHWVRQAPGQGLEWMGIINPSGGSTSYAQKFQGRVTMTRDTSTSTVYMELSSLRSEDTAVYYCAREEYAPFSAEYFQFWGQGTLVTVSS
VL: EIVLTQSPATLSLSPGERATLSCRASQSVSSYLAWYQQKPGQAPRLLIYDASNRATGIPARFSGSGSGTDFTLTINSLEPEDFAVYYCQQRSNWPPWTFGQGTKVEIKR
notes: as for B1
- ECL signal [28]: 369
- ECL signal [29]: 298
- ECL signal [30]: 329
- ECL signal [31]: 385
- ECL signal [32]: 52000
- ECL signal [33]: 436
- ECL signal [34]: 378
- ECL signal [35]: 384
- ECL signal [36]: 429
